Patent US20140349340A1 (DSM SINOCHEM PHARMACEUTICALS NETHERLANDS B V, published 2014)
Numbering of substitutions follows the chain as printed.

B1: MbtH-like protein VMbtH (other)
chain: MTNPFDNEDGTFFVLVNDEGQHSLWPTFAEVPAGWTRVHGEATRQECLAYVEENWTDLRPKSLIQALGA
notes: Expressed from pACYCtac-VMbtH in E. coli without a His-tag
B2: MbtH-like protein Tcp13 (other)
chain: MTNPFDNEDGSFLVLVNGEGQHSLWPAFAEVPDGWTGVHGPASRQDCLGYVEQNWTDLRPKSLISQISD
notes: Expressed from pACYCtac-Tcp13 in E. coli without a His-tag
B3: MbtH-like protein Tcp17 (other)
chain: B2 chain with K61R, I64V, S65E, I67A, S68D, D69A
notes: Expressed from pACYCtac-Tcp17 in E. coli without a His-tag

Each binder was assayed against Veg8_M1_A (uncultured soil bacterium) (assay: cell-based or functional assay).
Chain of Veg8_M1_A (uncultured soil bacterium) (chain, as listed by the source): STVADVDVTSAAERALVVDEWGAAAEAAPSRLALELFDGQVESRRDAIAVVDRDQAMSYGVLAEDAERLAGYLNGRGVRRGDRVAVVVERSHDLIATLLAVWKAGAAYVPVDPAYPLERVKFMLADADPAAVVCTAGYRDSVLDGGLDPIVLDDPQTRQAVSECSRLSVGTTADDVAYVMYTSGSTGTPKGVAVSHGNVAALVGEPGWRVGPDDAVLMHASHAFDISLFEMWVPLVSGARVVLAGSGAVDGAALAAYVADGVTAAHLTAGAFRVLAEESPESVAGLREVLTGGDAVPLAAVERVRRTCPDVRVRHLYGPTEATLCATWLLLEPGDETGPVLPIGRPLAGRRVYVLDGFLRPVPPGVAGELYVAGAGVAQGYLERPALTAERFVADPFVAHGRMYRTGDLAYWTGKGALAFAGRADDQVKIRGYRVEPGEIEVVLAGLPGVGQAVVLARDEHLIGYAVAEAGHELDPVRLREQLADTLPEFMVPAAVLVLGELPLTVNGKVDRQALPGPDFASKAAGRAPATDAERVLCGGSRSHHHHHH

| Binder | Formed PPi (PPi release assay), D-HPG 0.1 mM [mM/min/mM enzyme] | Formed PPi (PPi release assay), D-HPG 1 mM [mM/min/mM enzyme] | Formed PPi (PPi release assay), D-PG 1 mM [mM/min/mM enzyme] | Formed PPi (PPi release assay), L-HPG 0.1 mM [mM/min/mM enzyme] | Formed PPi (PPi release assay), L-HPG 1 mM [mM/min/mM enzyme] | Formed PPi (PPi release assay), L-PG 1 mM [mM/min/mM enzyme] |
| --- | --- | --- | --- | --- | --- | --- |
| B1 | 0.18 | 1.39 | 0.02 | 0.61 | 0.61 | 0.2 |
| B2 | 0.14 | 0.92 | 0.01 | 0.56 | 0.59 | 0.17 |
| B3 | 0.17 | 1.03 | 0.02 | 0.7 | 0.64 | 0.14 |

These binders were tested against Tcp11_M1_A (Actinoplanes teichomyceticus) (assay: cell-based or functional assay).
Chain of Tcp11_M1_A (Actinoplanes teichomyceticus) (chain, as listed by the source): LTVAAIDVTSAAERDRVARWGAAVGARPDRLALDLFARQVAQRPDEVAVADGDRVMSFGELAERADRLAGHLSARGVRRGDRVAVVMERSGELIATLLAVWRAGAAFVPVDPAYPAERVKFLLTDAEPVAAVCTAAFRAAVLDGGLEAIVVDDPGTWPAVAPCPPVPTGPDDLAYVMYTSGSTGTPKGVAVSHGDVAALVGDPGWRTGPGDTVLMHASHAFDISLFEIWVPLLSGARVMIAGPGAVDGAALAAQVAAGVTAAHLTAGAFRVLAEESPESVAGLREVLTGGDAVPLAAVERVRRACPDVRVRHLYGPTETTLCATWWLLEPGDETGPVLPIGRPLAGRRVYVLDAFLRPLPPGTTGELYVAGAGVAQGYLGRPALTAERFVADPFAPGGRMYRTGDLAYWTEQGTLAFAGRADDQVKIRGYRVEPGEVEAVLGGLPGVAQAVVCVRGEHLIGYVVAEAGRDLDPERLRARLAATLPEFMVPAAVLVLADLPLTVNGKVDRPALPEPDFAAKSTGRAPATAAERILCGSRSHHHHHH

| Binder | Formed PPi (PPi release assay), D-HPG 0.1 mM [mM/min/mM enzyme] | Formed PPi (PPi release assay), D-HPG 1 mM [mM/min/mM enzyme] | Formed PPi (PPi release assay), D-PG 1 mM [mM/min/mM enzyme] | Formed PPi (PPi release assay), L-HPG 0.1 mM [mM/min/mM enzyme] | Formed PPi (PPi release assay), L-HPG 1 mM [mM/min/mM enzyme] | Formed PPi (PPi release assay), L-PG 1 mM [mM/min/mM enzyme] |
| --- | --- | --- | --- | --- | --- | --- |
| B1 | 0 | 0.86 | 0 | 1.38 | 1.54 | 0.09 |
| B2 | 0.08 | 0.66 | 0 | 0.8 | 1.03 | 0.17 |
| B3 | 0.11 | 0.63 | 0.04 | 0.95 | 1.04 | 0.23 |

The binders below were run against Tcp9_M1_AT (Actinoplanes teichomyceticus) (assay: cell-based or functional assay).
Chain of Tcp9_M1_AT (Actinoplanes teichomyceticus) (chain, as listed by the source limits assumed): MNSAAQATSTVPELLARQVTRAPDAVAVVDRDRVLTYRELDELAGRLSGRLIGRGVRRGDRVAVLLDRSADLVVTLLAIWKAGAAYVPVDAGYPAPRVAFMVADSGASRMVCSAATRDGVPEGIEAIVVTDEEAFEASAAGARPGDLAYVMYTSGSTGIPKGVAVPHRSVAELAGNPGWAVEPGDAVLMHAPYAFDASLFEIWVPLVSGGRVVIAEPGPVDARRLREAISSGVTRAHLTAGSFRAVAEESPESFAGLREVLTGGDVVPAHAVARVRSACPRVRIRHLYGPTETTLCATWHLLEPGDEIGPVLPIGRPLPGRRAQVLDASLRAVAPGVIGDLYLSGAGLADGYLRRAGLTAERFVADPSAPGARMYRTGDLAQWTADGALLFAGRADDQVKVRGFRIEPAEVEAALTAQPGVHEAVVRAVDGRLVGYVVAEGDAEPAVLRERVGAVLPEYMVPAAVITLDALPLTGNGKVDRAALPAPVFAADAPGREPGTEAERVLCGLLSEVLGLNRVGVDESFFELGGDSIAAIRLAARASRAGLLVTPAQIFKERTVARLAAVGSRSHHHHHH

| Binder | Formed PPi (PPi release assay), D-HPG 0.1 mM [mM/min/mM enzyme] | Formed PPi (PPi release assay), D-HPG 1 mM [mM/min/mM enzyme] | Formed PPi (PPi release assay), D-PG 1 mM [mM/min/mM enzyme] | Formed PPi (PPi release assay), L-HPG 0.1 mM [mM/min/mM enzyme] | Formed PPi (PPi release assay), L-HPG 1 mM [mM/min/mM enzyme] | Formed PPi (PPi release assay), L-PG 1 mM [mM/min/mM enzyme] |
| --- | --- | --- | --- | --- | --- | --- |
| B1 | 3.72 | 8.44 | 0.07 | 1.23 | 1.4 | 2.32 |
| B2 | 2.07 | 5.28 | 0.05 | 1.18 | 1.16 | 1.32 |
| B3 | 1.71 | 4.63 | 0.05 | 1.2 | 1.34 | 1.44 |

Each binder was assayed against ComB_M1_A (Streptomyces lavendulae) (assay: His-tag (TALON) co-purification after co-expression in E. coli, SDS-PAGE).

| Binder | binding result |
| --- | --- |
| B1 | binds |
| B2 | binds |
| B3 | binds |

Each binder was assayed against Veg8_M1_ATE (uncultured soil bacterium) in the same assay as above.

| Binder | binding result |
| --- | --- |
| B1 | binds |
| B2 | binds |
| B3 | binds |
